B1: A45K, Q93D82 (parent)
chain: MSTAIVTNVKHFGGMGSALRLSEAGHTVACHDESFKQKDELEAFAETYPQLKPMSEQEPAELIEAVTSAYGQVDVLVSNDIFAPEFQPIDKYAVEDYRGAVEALQIRPFALVNAVASQMKKRKSGHIIFITSATPFGPWKELSTYTSARAGACTLANALSKELGEYNIPVFAIGPNYLHSEDSPYFYPTEPWKTNPEHVAHVKKVTALQRLGTQKELGELVAFLASGSCDYLTGQVFWLAGGFPMIERWPGMPE

Variants of B1 are the subject of this series. Conditions: Rhizobium radiobacter; pH 7.7; Thermal; CD; Phosphate 5mM; structure 1PWX; whole UniProt chain shown.

The term Tm denotes the temperature at which the thermal transition is half complete.

MSTAIVTNVKHFGGMGSALRLSEAGHTVACHDESFKQKDELEAFKETYPQLKPMSEQEPAELIEAVTSAYGQVDVLVSNDIFAPEFQPIDKYAVEDYRGAVEALQIRPFALVNAVASQMKKRKSGHIIFITSATPFGPWKELSTYTSARAGACTLANALSKELGEYNIPVFAIGPNYLHSEDSPYFYPTEPWKTNPEHVAHVKKVTALQRLGTQKELGELVAFLASGSCDYLTGQVFWLAGGFPMIERWPGMPE [A45K]: the Tm is 65.5 °C and the “change of melting temperature, mutant - wild type (higher = more stable)” value (from here on “change of melting temperature, mutant”) came to 0.5 °C.
The corresponding values for MSTAIVTNVKHFGGMGSALRLSEAGHTVACHDESFKQKDELEAFLETYPQLKPMSEQEPAELIEAVTSAYGQVDVLVSNDIFAPEFQPIDKYAVEDYRGAVEALQIRPFALVNAVASQMKKRKSGHIIFITSATPFGPWKELSTYTSARAGACTLANALSKELGEYNIPVFAIGPNYLHSEDSPYFYPTEPWKTNPEHVAHVKKVTALQRLGTQKELGELVAFLASGSCDYLTGQVFWLAGGFPMIERWPGMPE [A45L] are 64 °C and -1 °C.
Consider MSTAIVTNVKHFGGMGSALRLAEAGHTVACHDESFKQKDELEAFAETYPQLKPMSEQEPAELIEAVTSAYGQVDVLVSNDIFAPEFQPIDKYAVEDYRGAVEALQIRPFALVNAVASQMKKRKSGHIIFITSATPFGPWKELSTYTSARAGACTLANALSKELGEYNIPVFAIGPNYLHSEDSPYFYPTEPWKTNPEHVAHVKKVTALQRLGTQKELGELVAFLASGSCDYLTGQVFWLAGGFPMIERWPGMPE [S22A], for which the Tm was found to be 64.5 °C and the “change of melting temperature, mutant” value is -0.5 °C.
Regarding MSTAIVTNVKHFGGMGSALRLSEAGHTVLCHDESFKQKDELEAFAETYPQLKPMSEQEPAELIEAVTSAYGQVDVLVSNDIFAPEFQPIDKYAVEDYRGAVEALQIRPFALVNAVASQMKKRKSGHIIFITSATPFGPWKELSTYTSARAGACTLANALSKELGEYNIPVFAIGPNYLHSEDSPYFYPTEPWKTNPEHVAHVKKVTALQRLGTQKELGELVAFLASGSCDYLTGQVFWLAGGFPMIERWPGMPE [A29L], the Tm is 68 °C and the “change of melting temperature, mutant” value was 3 °C.
For MKTAIVTNVKHFGGMGSALRLSEAGHTVACHDESFKQKDELEAFAETYPQLKPMSEQEPAELIEAVTSAYGQVDVLVSNDIFAPEFQPIDKYAVEDYRGAVEALQIRPFALVNAVASQMKKRKSGHIIFITSATPFGPWKELSTYTSARAGACTLANALSKELGEYNIPVFAIGPNYLHSEDSPYFYPTEPWKTNPEHVAHVKKVTALQRLGTQKELGELVAFLASGSCDYLTGQVFWLAGGFPMIERWPGMPE [S2K], the Tm is 66 °C and the “change of melting temperature, mutant” value is 1 °C.
With MSTAIVTNVKHFGGMGSALRLSEAGHTVAVHDESFKQKDELEAFAETYPQLKPMSEQEPAELIEAVTSAYGQVDVLVSNDIFAPEFQPIDKYAVEDYRGAVEALQIRPFALVNAVASQMKKRKSGHIIFITSATPFGPWKELSTYTSARAGACTLANALSKELGEYNIPVFAIGPNYLHSEDSPYFYPTEPWKTNPEHVAHVKKVTALQRLGTQKELGELVAFLASGSCDYLTGQVFWLAGGFPMIERWPGMPE [C30V], the Tm is 64 °C and the “change of melting temperature, mutant” value is -1 °C.
In the case of MSTAIVTNVKHFGGMGSALRLSEAGHMVACHDESFKQKDELEAFAETYPQLKPMSEQEPAELIEAVTSAYGQVDVLVSNDIFAPEFQPIDKYAVEDYRGAVEALQIRPFALVNAVASQMKKRKSGHIIFITSATPFGPWKELSTYTSARAGACTLANALSKELGEYNIPVFAIGPNYLHSEDSPYFYPTEPWKTNPEHVAHVKKVTALQRLGTQKELGELVAFLASGSCDYLTGQVFWLAGGFPMIERWPGMPE [T27M], the melting temperature (Tm) is 65 °C and the “change of melting temperature, mutant” value was 0 °C.
The corresponding values for MSTAIVTNVKHFGGMGSALRLSEAGHLVACHDESFKQKDELEAFAETYPQLKPMSEQEPAELIEAVTSAYGQVDVLVSNDIFAPEFQPIDKYAVEDYRGAVEALQIRPFALVNAVASQMKKRKSGHIIFITSATPFGPWKELSTYTSARAGACTLANALSKELGEYNIPVFAIGPNYLHSEDSPYFYPTEPWKTNPEHVAHVKKVTALQRLGTQKELGELVAFLASGSCDYLTGQVFWLAGGFPMIERWPGMPE [T27L] are 65 °C and 0 °C.
For MSTAIVTNVKHFGGMGSALRLSEAGHVVACHDESFKQKDELEAFAETYPQLKPMSEQEPAELIEAVTSAYGQVDVLVSNDIFAPEFQPIDKYAVEDYRGAVEALQIRPFALVNAVASQMKKRKSGHIIFITSATPFGPWKELSTYTSARAGACTLANALSKELGEYNIPVFAIGPNYLHSEDSPYFYPTEPWKTNPEHVAHVKKVTALQRLGTQKELGELVAFLASGSCDYLTGQVFWLAGGFPMIERWPGMPE [T27V], the Tm is 64.5 °C and the “change of melting temperature, mutant” value is -0.5 °C.
For MSTAIVTNVKHFGGMGSALRLSEAGHTVACHDESFKQKKELEAFAETYPQLKPMSEQEPAELIEAVTSAYGQVDVLVSNDIFAPEFQPIDKYAVEDYRGAVEALQIRPFALVNAVASQMKKRKSGHIIFITSATPFGPWKELSTYTSARAGACTLANALSKELGEYNIPVFAIGPNYLHSEDSPYFYPTEPWKTNPEHVAHVKKVTALQRLGTQKELGELVAFLASGSCDYLTGQVFWLAGGFPMIERWPGMPE [D39K] the same measures were 66.5 °C and 1.5 °C.
For MSTAIVTNVKHFGGMGSALRLSEAGHTVACHDESFKQKEELEAFAETYPQLKPMSEQEPAELIEAVTSAYGQVDVLVSNDIFAPEFQPIDKYAVEDYRGAVEALQIRPFALVNAVASQMKKRKSGHIIFITSATPFGPWKELSTYTSARAGACTLANALSKELGEYNIPVFAIGPNYLHSEDSPYFYPTEPWKTNPEHVAHVKKVTALQRLGTQKELGELVAFLASGSCDYLTGQVFWLAGGFPMIERWPGMPE [D39E] the same measures were 65 °C and 0 °C.

The values are drawn from FireProtDB (doi:10.1093/protein/gzw068).
